For 11 molecules, In vitro IC50 (3H-thymidine incorporation) and Rel. Affinity results are on record in US5773001 (American Cyanamid Company, dated 1998).

For test [1], the target named is polyepithelial mucin (PEM) antigen on cells (human) (UniProt P15941).
Test [2] deals with T1, glycoprotein antigen present on colon cancer cells, recognized by A33 (Homo sapiens (Human)) (UniProt Q99795).
T1 sequence: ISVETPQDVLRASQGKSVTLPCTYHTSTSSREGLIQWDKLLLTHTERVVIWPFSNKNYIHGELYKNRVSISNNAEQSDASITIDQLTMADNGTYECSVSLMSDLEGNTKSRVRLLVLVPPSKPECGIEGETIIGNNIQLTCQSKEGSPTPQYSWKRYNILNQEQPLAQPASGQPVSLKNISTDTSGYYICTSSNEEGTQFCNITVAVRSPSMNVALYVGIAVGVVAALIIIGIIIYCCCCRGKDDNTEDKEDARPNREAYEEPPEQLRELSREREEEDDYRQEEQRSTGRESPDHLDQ

Test [3] has as its target T1, glycoprotein antigen present on colon cancer cells, recognized by A33 (Homo sapiens (Human)). Kind of test: competition with 125I-labelled native antibody on COLO 205 cells; IC50 (reference) / IC50 (sample).
The target of test [4] is CD33 antigen (human) (UniProt P20138).
Test [5] shares this target. Kind of test: competition with 125I-labelled native antibody on HEL 92.1.7 cells; IC50 (reference) / IC50 (sample).
The target is the same in test [6]. The source holds these as a separate data set.
For test [7] the target is unchanged. The source holds these as a separate data set.
Test [8] deals with T1, glycoprotein antigen present on colon cancer cells, recognized by A33 (Homo sapiens (Human)). This is another data set of the same source.
The target in test [9] is CD33 antigen (human) (UniProt P20138). This is another data set of the same source.
The target is the same in test [10]. This is another data set of the same source.
The target is the same in test [11]. The source holds these as a separate data set.
Test [12] shares this target. Kind of test: competition with 125I-labelled native antibody on HEL 92.1.7 cells; IC50 (reference) / IC50 (sample). The source holds these as a separate data set.
Test [13] shares this target. This is another data set of the same source.
The target is the same in test [14]. The source holds these as a separate data set.

Where two headings read alike, the source gives them in different places.

In [1], “Conjugate of 4-(4-acetylphenoxy)butanoic acid (7) condensed with Calicheamicin N-acetyl gamma dimethyl hydrazide and h-CT-M-01 (antibody)” registered an In vitro IC50 (3H-thymidine incorporation) of 0.048 ng/mL.

“Conjugate of 4-(4-acetylphenoxy)butanoic acid (7) condensed with calicheamicin gamma dimethyl hydrazide and h-A33 (antibody)”: the In vitro IC50 (3H-thymidine incorporation) in test [2] is 3.55 ng/mL. For the same molecule, the Rel. Affinity in [3] was 0.91. For the molecule “Conjugate of 4-(4-formyl-2-methoxyphenoxy)butanoic acid (11) condensed with Calicheamicin N-acetyl gamma dimethyl hydrazide and m-P67.6 (antibody)”, the In vitro IC50 (3H-thymidine incorporation) with CD33 antigen (human) [4] is 0.13 ng/mL. This molecule registered a Rel. Affinity with CD33 antigen (human) [5] of 0.22. Take “Conjugate of 4-(4-formylphenoxy)butanoic acid (9) condensed with Calicheamicin N-acetyl gamma dimethyl hydrazide and m-P67.6 (antibody)”: the In vitro IC50 (3H-thymidine incorporation) with CD33 antigen (human) [6] is 0.087 ng/mL. Besides, the Rel. Affinity with CD33 antigen (human) [5] turned out to be 0.7.

Turning to “Conjugate of 4-(4-acetyl-2-methylphenoxy)butanoic acid (10) condensed with Calicheamicin N-acetyl gamma dimethyl hydrazide and m-P67.6 (antibody)”, the In vitro IC50 (3H-thymidine incorporation) with CD33 antigen (human) [7] stood at 0.041 ng/mL. In the test with CD33 antigen (human) [5], this molecule had a Rel. Affinity of 1.07. Molecule “Conjugate of 4-(4-acetylphenoxy)butanoic acid (7) condensed with calicheamicin N-acetyl gamma dimethyl hydrazide and h-A33 (antibody)” came in with an In vitro IC50 (3H-thymidine incorporation) in [8] of 4.03 ng/mL. Besides, the Rel. Affinity in test [3] is 1.13. In the test with CD33 antigen (human) [9], “Conjugate of 4-(3-formylphenoxy)butanoic acid (8) condensed with Calicheamicin N-acetyl gamma dimethyl hydrazide and m-P67.6 (antibody)” had an In vitro IC50 (3H-thymidine incorporation) of 0.38 ng/mL. In the test with CD33 antigen (human) [5], this molecule registered a Rel. Affinity of 1. Consider “Conjugate of 4-formylbenzenepropanoic acid (12) condensed with Calicheamicin N-acetyl gamma dimethyl hydrazide and m-P67.6 (antibody)”, for which the In vitro IC50 (3H-thymidine incorporation) with CD33 antigen (human) [10] was 0.12 ng/mL. Further, the Rel. Affinity with CD33 antigen (human) [5] was 0.73.

B1: Conjugate of 4-(4-acetyl-2-methylphenoxy)butanoic acid (10) condensed with Calicheamicin N-acetyl gamma dimethyl hydrazide and h-P67.6 (antibody, V domains shown)
VH: EVQLVQSGAEVKKPGSSVKVSCKASGYTITDSNIHWVRQAPGQSLEWIGYIYPYNGGTDYNQKFKNRATLTVDNPTNTAYMELSSLRSEDTDFYYCVNGNPWLAYWGQGTLVTVSS
VL: DIQLTQSPSTLSASVGDRVTITCRASESLDNYGIRFLTWFQQKPGKAPKLLMYAASNQGSGVPSRFSGSGSGTEFTLTISSLQPDDFATYYCQQTKEVPWSFGQGTKVEVKR
modifications: drug-linker amide on lysine side chains, sites not stated; drug-linker amide on lysine side chains, sites not stated
The molecule B1 showed an In vitro IC50 (3H-thymidine incorporation) in the test with CD33 antigen (human) [11] of 0.45 ng/mL. In the test with CD33 antigen (human) [12], this molecule displayed a Rel. Affinity of 1.16.

B2: Conjugate of 4-formylbenzenepropanoic acid (12) condensed with Calicheamicin N-acetyl gamma dimethyl hydrazide and h-P67.6 (antibody, V domains shown)
VH: B1 VH
VL: B1 VL
modifications: drug-linker amide on lysine side chains, sites not stated; drug-linker amide on lysine side chains, sites not stated
Molecule B2 registered an In vitro IC50 (3H-thymidine incorporation) with CD33 antigen (human) [13] of 1 ng/mL. The Rel. Affinity with CD33 antigen (human) [12] is 0.73.

B3: Conjugate of 4-(4-formyl-2-methoxyphenoxy)butanoic acid (11) condensed with Calicheamicin N-acetyl gamma dimethyl hydrazide and h-P67.6 (antibody, V domains shown)
VH: B1 VH
VL: B1 VL
modifications: drug-linker amide on lysine side chains, sites not stated; drug-linker amide on lysine side chains, sites not stated
B3 displayed an In vitro IC50 (3H-thymidine incorporation) with CD33 antigen (human) [14] of 3.8 ng/mL. Besides, in the test with CD33 antigen (human) [12], the Rel. Affinity amounted to 0.73.
